Results reported in article PMC4506123, “Identification of an Isothiocyanate on the HypEF Complex Suggests a Route for Efficient Cyanyl–Group Channeling during [NiFe]–Hydrogenase Cofactor Generation” (PLoS ONE, 2015).

Biological target: T1, HypF (E. coli, UniProt P30131 1-750)
T1 construct: HypF, carbamoyltransferase of [NiFe]-hydrogenase maturation of E. coli; 82 kDa; also called His-tagged HypF; auxiliary protein HypF; source: isolated from E. coli, purified as described previously [21] with 10 mM magnesium acetate in all buffers
T1 sequence (looked up): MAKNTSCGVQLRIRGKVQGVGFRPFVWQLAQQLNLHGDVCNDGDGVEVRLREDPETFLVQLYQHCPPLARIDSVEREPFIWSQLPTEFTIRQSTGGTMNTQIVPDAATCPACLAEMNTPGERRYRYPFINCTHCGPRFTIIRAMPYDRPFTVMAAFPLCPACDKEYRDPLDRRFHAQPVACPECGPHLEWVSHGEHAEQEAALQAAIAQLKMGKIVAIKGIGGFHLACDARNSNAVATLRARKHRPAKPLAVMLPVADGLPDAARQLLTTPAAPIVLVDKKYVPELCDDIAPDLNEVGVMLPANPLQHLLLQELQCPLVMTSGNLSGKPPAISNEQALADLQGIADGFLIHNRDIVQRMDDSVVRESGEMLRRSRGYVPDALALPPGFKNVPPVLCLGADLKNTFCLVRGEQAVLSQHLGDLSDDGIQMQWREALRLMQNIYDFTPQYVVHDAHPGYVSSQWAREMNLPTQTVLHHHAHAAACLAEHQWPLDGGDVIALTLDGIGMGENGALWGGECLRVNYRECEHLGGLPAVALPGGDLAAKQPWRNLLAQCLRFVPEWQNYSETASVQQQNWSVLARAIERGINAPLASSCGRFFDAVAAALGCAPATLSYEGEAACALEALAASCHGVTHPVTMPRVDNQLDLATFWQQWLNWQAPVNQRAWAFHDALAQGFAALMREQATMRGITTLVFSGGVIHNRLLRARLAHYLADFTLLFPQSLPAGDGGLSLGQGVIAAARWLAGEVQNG
Assay: native gel or EMSA; native PAGE as described earlier [35,36]; isolated HypE and HypF; no further conditions told for this experiment
Conditions: both partners purified

B1: HypE (natural protein, E. coli, UniProt P24193 1-336, looked up)
chain: MNNIQLAHGSGGQAMQQLINSLFMEAFANPWLAEQEDQARLDLAQLVAEGDRLAFSTDSYVIDPLFFPGGNIGKLAICGTANDVAVSGAIPRYLSCGFILEEGLPMETLKAVVTSMAETARAAGIAIVTGDTKVVQRGAVDKLFINTAGMGAIPANIHWGAQTLTAGDVLLVSGTLGDHGATILNLREQLGLDGELVSDCAVLTPLIQTLRDIPGVKALRDATRGGVNAVVHEFAAACGCGIELSEAALPVKPAVRGVCELLGLDALNFANEGKLVIAVERNAAEQVLAALHSHPLGKDAALIGEVVERKGVRLAGLYGVKRTLDLPHAEPLPRIC
notes: HypE, [NiFe]-hydrogenase maturation protein of E. coli; 36 kDa monomer; C-terminal cysteine C336 in E. coli nomenclature; also called His-tagged HypE; auxiliary protein HypE; source: isolated from E. coli, purified as described previously [21] with 10 mM magnesium acetate in all buffers
- binding result: binds
